One block for each molecule: values may come before it.
B4: carcinoembryonic antigen (CEA) immunopurified from LS174T colon carcinoma cell lysate (ligand, human, UniProt P06731 35-685, looked up)
chain: KLTIESTPFNVAEGKEVLLLVHNLPQHLFGYSWYKGERVDGNRQIIGYVIGTQQATPGPAYSGREIIYPNASLLIQNIIQNDTGFYTLHVIKSDLVNEEATGQFRVYPELPKPSISSNNSKPVEDKDAVAFTCEPETQDATYLWWVNNQSLPVSPRLQLSNGNRTLTLFNVTRNDTASYKCETQNPVSARRSDSVILNVLYGPDAPTISPLNTSYRSGENLNLSCHAASNPPAQYSWFVNGTFQQSTQELFIPNITVNNSGSYTCQAHNSDTGLNRTTVTTITVYAEPPKPFITSNNSNPVEDEDAVALTCEPEIQNTTYLWWVNNQSLPVSPRLQLSNDNRTLTLLSVTRNDVGPYECGIQNELSVDHSDPVILNVLYGPDDPTISPSYTYYRPGVNLSLSCHAASNPPAQYSWLIDGNIQQHTQELFISNITEKNSGLYTCQANNSASGHSRTTVKTITVSAELPKPSISSNNSKPVEDKDAVAFTCEPEAQNTTYLWWVNGQSLPVSPRLQLSNGNRTLTLFNVTRNDARAYVCGIQNSVSANRSDPVTLDVLYGPDTPIISPPDSSYLSGANLNLSCHSASNPSPQYSWRINGIPQQHTQVLFIAKITPNNNGTYACFVSNLATGRNNSIVKSITVSASGTSPGLSA
modifications: sialofucosylated (HECA-452-reactive) O-linked glycans
notes: mature; One entry for CEA from wild-type and from CD44-knockdown LS174T cells; Used as blot band or adsorbed on microspheres; also called CD66e; CEACAM5

Tests used:
[1] = target: E-selectin-IgG Fc chimera (human) (UniProt P16581); experiment: flow-based adhesion assay, sialidase-treated against untreated PCLP-coated microbeads on 10 µg/ml E-selectin at 1 dyn/cm2
[2] = target: B4; experiment: blot rolling assay with human peripheral blood lymphocytes at 0.5 dyn/cm2
Excerpt: FIGS. 6A-6B provides the Western blot results from CD66e experiments. […] B: Selectin-dependent adhesion to SDS-PAGE resolved and blotted CEA immunoprecipitated from CD44-knockdown LS174T whole cell lysate. CHO-E cells, lymphocytes or CHO-P cells were perfused at the wall shear stress level of 0.5 dyn/cm² over SDS-PAGE immunoblots of immunopurified CD66e from whole cell lysate of CD44-knockdown LSI 74T cells. In select experiments, CHO-E cells and lymphocytes were pre-treated with an anti-E-selectin or an anti-L-selectin function blocking mAb (20 μg/ml), respectively, before use in blot rolling assays. The saturating concentration of the mAb (20 μg/ml) was maintained in the perfusion assays. Data represent the mean±S.E. of n≧3 experiments.
(§1) Fuhlbrigge et al., I 68 J. IMMUNOL. 5645-5651 (2002). The blots were placed under a parallel-plate flow chamber, and human peripheral blood lymphocytes or CHO transfectants, re-suspended at 5×10⁶ cells/ml in 90% D-PBS/I 0% glycerol, were perfused at the shear stress of 0.5 dyn/cm². Hanley et al., 20 FASEB J. 337-339 (2006); Napier et al., 282 J. BIOL. CHEM. 3433-3441 (2007); and Thomas et al., 283 J BIOL CHEM 15647-15655 (2008). Molecular weight markers were used as guides to aid placement of the flow chamber over stained bands of interest. […] Non-specific adhesion was assessed by perfusing 5 mM EDTA in the flow medium.

[3] = target: T1, CD66c immunopurified from LS174T colon carcinoma cell lysate (human, UniProt P40199 35-320); experiment: cell-free flow-based adhesion assay, CD66c-coated microspheres
T1 construct: mature; Blot band or adsorbed on microspheres
T1 sequence (looked up): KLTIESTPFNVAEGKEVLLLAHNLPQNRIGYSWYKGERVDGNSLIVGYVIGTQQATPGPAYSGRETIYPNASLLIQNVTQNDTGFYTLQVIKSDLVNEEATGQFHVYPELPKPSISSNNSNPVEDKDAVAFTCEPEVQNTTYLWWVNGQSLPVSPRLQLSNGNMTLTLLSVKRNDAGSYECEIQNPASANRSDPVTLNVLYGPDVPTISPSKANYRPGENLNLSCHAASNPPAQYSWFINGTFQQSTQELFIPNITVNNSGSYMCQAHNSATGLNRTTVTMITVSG

[4] = target: B4; experiment: cell-free flow-based adhesion assay, CEA-coated microspheres
Excerpt: A cell-free flow-based adhesion assay (Hanley, et al., 20(2) FASEB J. 20(2), 337-339 (2006); Napier, et al., 282(6) J. BIOL. CHEM. 3433-3441 (2007)) was used to compare the adhesion of microspheres coated with CEA immunopurified from wildtype versus CD44-knockdown LS174T colon carcinoma cells to selectin substrates in shear flow. This technique allows quantitative comparisons of CEA-mediated adhesion to selectin substrates at prescribed CEA and selectin site densities under physiological flow conditions.
To test this hypothesis, the CEA-coated microspheres were perfused over purified selectin substrates under prescribed wall shear stress levels. As expected from blot rolling assays, microspheres coated with CEA from either cell type were capable of tethering and rolling over E- and L-, but not P-, selectin substrates, albeit with varying efficiencies (FIG. 8C-E). Most importantly, the extent of tethering of CD44-knockdown LS174T CEA-coated microspheres to E-selectin was lower than that of microspheres decorated with CEA from wildtype LS174T cells (FIG. 8C). […] In contrast, no difference was detected in either the extent of tethering (FIG. 8C) or the average rolling velocities (FIG. 8E) of microspheres coated with CEA from either cell type over L-selectin.

[5] = target: T2, P-selectin on CHO cells stably transfected with the phosphatidylinositol glycan-linked extracellular domain … (UniProt P16109 42-771, limits assumed, phosphatidylinositol glycan-linked); experiment: blot rolling assay: CHO-P cells perfused at 0.5 dyn/cm2 over blot of immunopurified CEA
T2 construct: extracellular domain; also called P-selectin-expressing CHO cells
T2 sequence (looked up): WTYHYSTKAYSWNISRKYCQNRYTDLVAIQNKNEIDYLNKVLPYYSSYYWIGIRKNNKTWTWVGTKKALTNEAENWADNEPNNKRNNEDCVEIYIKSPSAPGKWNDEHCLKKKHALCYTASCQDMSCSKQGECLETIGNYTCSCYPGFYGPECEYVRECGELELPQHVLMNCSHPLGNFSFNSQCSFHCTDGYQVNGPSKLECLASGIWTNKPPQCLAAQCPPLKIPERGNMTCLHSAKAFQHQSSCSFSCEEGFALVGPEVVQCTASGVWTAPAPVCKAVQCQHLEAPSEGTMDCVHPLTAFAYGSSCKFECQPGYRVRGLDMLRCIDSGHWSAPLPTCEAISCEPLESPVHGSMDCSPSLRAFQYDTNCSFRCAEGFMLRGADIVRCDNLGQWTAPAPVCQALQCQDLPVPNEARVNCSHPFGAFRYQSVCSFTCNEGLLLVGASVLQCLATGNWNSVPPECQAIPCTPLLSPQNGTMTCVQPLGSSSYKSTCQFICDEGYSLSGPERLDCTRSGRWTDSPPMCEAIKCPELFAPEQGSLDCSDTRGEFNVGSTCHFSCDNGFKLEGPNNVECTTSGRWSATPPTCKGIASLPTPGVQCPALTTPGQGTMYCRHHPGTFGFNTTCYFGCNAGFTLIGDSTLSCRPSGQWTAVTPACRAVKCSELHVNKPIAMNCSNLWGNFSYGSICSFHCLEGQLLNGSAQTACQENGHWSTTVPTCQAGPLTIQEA
Experimental: In select experiments, CHO-E cells and lymphocytes were pre-treated with an anti-E-selectin or an anti-L-selectin function blocking mAb (20 μg/ml), respectively, before use in blot rolling assays. The saturating concentration of the mAb (20 μg/ml) was maintained in the perfusion assays. Data represent the mean±S.E. of n≧3 experiments.
as §1, with “CHEM.” for “CHEM. 3433-3441 (2007); and Thomas et al., 283 J BIOL CHEM 15647-15655 (2008). Molecular weight markers were used as guides to aid placement of the flow chamber over stained bands of interest.”
Although previous studies have reported that CEA and CEA-family members such as CD66c (Kuijpers, et al., 118(2) J CELL BIOL. 457-466 (1992)) bind E-selectin under static/no-flow conditions, the capacity of CEA to interact with E-selectin under physiologically relevant flow conditions as well as its potential cross-reactivity with L- and P-selectin have yet to be examined. […] The specificity of these adhesive interactions was assessed by incubating CHO-E cell suspensions or lymphocytes with an anti-E-selectin or an anti-L-selectin function-blocking mAb, respectively (FIG. 6B).

- reduction of binding after sialidase treatment [1]: 80%
Molecule: podocalyxin-like protein (PCLP) immunopurified from LS174T colon carcinoma cell lysate (from UniProt O00592 23-558) (ligand)

- binding result [2]: binds
B1: L-selectin on human peripheral blood lymphocytes (receptor, UniProt P14151 39-372, looked up)
chain: WTYHYSEKPMNWQRARRFCRDNYTDLVAIQNKAEIEYLEKTLPFSRSYYWIGIRKIGGIWTWVGTNKSLTEEAENWGDGEPNNKKNKEDCVEIYIKRNKDAGKWNDDACHKLKAALCYTASCQPWSCSGHGECVEIINNYTCNCDVGYYGPQCQFVIQCEPLEAPELGTMDCTHPLGNFSFSSQCAFSCSEGTNLTGIEETTCGPFGNWSSPEPTCQVIQCEPLSAPDLGIMNCSHPLASFSFTSACTFICSEGTELIGKKKTICESSGIWSNPSPICQKLDKSFSMIKEGDYNPLFIPVAVMVTAFSGLAFIIWLARRLKKGKKSKRSMNDPY
notes: whole, on cells; also called Lymphocyte (L-selectin); L-selectin-expressing human peripheral blood lymphocytes

- binding result [3]: no binding
B2: E-selectin-IgG Fc chimera (Fc fusion, human, UniProt P16581 22-301, looked up)
chain: WSYNTSTEAMTYDEASAYCQQRYTHLVAIQNKEEIEYLNSILSYSPSYYWIGIRKVNNVWVWVGTQKPLTEEAKNWAPGEPNNRQKDEDCVEIYIKREKDVGMWNDERCSKKKLALCYTAACTNTSCSGHGECVETINNYTCKCDPGFSGLKCEQIVNCTALESPEHGSLVCSHPLGNFSYNSSCSISCDRGYLPSSMETMQCMSSGEWSAPIPACNVVECDAVTNPANGFVECFQNPGSFPWNTTCTFDCEEGFELMGAQSLQCTSSGNWDNEKPTCKA
notes: domain: lectin, epidermal growth factor and consensus repeat domains; From Wyeth External Research; immobilised on dishes (10 µg/ml for microbeads, 0.75 µg/ml for cells); also called chimeric form of E-selectin-IgG Fc; not shown: human IgG1 (printed 'IgGi'); selectin domains linked to each arm of the IgG

B3: P-selectin-IgG Fc chimera (Fc fusion, human, UniProt P16109 42-321, looked up)
chain: WTYHYSTKAYSWNISRKYCQNRYTDLVAIQNKNEIDYLNKVLPYYSSYYWIGIRKNNKTWTWVGTKKALTNEAENWADNEPNNKRNNEDCVEIYIKSPSAPGKWNDEHCLKKKHALCYTASCQDMSCSKQGECLETIGNYTCSCYPGFYGPECEYVRECGELELPQHVLMNCSHPLGNFSFNSQCSFHCTDGYQVNGPSKLECLASGIWTNKPPQCLAAQCPPLKIPERGNMTCLHSAKAFQHQSSCSFSCEEGFALVGPEVVQCTASGVWTAPAPVCKA
notes: domain: lectin, epidermal growth factor and consensus repeat domains; From Wyeth External Research; immobilised on dishes; also called chimeric form of P-selectin-IgG Fc; not shown: human IgG1 (printed 'IgGi'); selectin domains linked to each arm of the IgG
- binding result [4]: no binding (tested: 10 µg/ml P-selectin coating)

Molecule: B4
- binding result [5]: no binding

From US20160151519A1 (JOHN HOPKINS UNIVERSITY, published 2016)
